The target in experiment [1] is GST-dynein_(331 kDa) (S. cerevisiae) (UniProt P36022).
Experiment [2] shares this target. The source holds these as a separate data set.

Chain of GST-dynein_(331 kDa) (S. cerevisiae) (P36022 whole entry): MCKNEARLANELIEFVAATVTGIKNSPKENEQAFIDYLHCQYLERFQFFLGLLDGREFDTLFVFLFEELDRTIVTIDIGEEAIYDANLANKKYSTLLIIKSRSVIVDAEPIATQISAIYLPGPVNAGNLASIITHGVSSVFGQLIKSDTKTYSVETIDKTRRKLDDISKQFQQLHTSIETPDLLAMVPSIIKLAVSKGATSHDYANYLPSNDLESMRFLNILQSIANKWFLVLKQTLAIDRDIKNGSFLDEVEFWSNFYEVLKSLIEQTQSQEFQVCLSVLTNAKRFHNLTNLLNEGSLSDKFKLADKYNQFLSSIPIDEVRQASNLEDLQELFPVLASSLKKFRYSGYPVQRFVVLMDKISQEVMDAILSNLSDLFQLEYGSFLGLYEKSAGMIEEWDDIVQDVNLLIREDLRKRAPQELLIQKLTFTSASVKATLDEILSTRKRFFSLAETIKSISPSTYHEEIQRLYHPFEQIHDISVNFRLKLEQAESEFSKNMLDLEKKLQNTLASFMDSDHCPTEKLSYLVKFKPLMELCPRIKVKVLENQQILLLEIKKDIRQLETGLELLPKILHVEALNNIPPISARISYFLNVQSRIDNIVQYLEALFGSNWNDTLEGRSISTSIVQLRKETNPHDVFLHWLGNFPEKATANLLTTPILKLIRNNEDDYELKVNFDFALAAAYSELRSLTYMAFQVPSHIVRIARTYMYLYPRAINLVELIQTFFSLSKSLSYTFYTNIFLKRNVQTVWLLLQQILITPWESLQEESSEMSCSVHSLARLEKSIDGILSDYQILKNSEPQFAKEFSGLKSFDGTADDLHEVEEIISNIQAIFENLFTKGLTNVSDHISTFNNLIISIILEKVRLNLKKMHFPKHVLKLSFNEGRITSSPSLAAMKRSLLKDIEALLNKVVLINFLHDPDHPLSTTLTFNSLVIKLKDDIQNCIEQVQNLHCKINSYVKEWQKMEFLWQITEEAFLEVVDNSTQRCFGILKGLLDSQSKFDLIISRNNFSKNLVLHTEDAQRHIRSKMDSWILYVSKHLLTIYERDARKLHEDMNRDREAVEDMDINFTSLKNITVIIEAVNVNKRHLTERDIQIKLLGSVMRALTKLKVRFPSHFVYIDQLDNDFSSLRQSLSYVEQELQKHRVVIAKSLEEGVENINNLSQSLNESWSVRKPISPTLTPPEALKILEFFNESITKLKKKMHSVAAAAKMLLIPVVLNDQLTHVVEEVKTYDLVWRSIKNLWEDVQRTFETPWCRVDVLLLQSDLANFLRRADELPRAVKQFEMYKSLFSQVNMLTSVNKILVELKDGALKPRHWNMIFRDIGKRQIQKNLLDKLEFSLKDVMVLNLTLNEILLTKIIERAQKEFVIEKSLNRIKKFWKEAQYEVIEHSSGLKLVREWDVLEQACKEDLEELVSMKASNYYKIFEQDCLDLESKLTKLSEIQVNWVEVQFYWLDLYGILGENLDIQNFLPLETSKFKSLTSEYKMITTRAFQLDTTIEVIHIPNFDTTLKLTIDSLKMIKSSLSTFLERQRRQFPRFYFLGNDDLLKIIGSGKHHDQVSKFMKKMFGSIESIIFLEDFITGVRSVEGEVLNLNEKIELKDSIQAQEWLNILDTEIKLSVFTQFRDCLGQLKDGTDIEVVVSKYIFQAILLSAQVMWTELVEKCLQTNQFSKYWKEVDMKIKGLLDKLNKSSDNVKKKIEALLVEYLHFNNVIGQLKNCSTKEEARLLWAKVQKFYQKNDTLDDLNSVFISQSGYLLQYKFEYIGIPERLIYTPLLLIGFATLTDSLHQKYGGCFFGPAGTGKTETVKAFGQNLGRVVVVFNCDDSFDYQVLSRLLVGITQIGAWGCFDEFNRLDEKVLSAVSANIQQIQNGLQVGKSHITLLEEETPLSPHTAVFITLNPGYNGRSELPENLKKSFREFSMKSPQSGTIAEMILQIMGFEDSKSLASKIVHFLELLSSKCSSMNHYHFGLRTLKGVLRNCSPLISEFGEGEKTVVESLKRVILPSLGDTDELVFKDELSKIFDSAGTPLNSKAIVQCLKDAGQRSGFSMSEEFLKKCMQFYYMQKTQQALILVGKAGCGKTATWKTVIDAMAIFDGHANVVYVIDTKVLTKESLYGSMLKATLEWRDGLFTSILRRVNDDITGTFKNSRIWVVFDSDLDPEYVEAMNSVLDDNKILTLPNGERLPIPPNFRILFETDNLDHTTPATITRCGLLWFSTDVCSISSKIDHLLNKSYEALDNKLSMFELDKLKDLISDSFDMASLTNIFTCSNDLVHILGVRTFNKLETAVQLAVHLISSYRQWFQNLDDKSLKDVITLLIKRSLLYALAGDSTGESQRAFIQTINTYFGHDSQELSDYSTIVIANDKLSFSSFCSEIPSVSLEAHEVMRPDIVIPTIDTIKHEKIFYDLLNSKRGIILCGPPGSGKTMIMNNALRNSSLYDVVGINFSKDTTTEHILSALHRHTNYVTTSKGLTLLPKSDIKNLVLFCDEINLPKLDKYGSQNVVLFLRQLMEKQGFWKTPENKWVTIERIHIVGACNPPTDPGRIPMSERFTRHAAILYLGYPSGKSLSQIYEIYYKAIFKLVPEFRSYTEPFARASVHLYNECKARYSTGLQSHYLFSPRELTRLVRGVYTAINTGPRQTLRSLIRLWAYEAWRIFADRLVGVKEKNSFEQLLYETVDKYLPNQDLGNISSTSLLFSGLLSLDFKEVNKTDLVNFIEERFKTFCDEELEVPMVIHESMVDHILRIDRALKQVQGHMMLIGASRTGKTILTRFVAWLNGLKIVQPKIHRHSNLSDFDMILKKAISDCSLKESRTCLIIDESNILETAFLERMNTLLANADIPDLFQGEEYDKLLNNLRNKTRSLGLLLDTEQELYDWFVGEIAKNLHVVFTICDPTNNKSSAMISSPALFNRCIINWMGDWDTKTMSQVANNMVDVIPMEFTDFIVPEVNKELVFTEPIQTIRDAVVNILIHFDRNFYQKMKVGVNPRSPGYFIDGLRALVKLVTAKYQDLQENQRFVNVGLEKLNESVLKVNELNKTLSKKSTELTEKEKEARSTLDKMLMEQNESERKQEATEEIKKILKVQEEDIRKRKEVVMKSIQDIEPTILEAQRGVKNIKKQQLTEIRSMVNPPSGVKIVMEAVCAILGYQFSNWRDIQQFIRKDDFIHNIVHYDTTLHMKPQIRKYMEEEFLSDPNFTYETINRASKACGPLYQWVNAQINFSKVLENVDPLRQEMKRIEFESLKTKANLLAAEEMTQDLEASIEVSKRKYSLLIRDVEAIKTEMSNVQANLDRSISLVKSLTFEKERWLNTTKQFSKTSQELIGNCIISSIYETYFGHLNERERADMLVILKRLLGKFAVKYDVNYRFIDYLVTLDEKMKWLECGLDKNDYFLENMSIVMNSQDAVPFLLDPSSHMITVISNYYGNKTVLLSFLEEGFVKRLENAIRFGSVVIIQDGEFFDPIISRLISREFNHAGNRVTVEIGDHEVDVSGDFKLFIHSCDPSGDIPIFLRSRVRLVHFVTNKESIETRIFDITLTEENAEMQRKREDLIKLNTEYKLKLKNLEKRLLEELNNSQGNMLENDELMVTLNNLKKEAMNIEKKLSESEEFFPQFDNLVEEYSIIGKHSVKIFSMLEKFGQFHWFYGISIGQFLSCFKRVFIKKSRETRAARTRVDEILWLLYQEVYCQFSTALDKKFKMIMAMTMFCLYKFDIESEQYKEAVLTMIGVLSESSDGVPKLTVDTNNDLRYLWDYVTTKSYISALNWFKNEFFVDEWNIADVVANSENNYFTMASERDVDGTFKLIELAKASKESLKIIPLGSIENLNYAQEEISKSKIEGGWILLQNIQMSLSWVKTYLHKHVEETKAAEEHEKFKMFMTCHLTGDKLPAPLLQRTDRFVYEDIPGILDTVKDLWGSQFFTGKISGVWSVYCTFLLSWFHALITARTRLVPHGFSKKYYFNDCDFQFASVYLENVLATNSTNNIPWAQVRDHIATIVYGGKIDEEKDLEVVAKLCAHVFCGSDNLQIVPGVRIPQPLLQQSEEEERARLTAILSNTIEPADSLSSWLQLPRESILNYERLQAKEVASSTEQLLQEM

B1: Lis1 (S. cerevisiae Pac1) (natural protein)
chain: MTNWQQQLPLTDTQKNELDKSVLRYLNWNYKQTVRHEHAQDYESVRHAIVTLSGFLLQESVDRQEFISNNDTSNESMVDIDELLLPKKWNSIVRLQKKIIELEQNTETLVSQIKDLNTQVSELAQFKPTTSNGTSAHNVLKWIPRNLPSCLINVESSVTSVKLHPNLPIVFVATDHGKLYAFDLFNYTIPLASLQSHTKAITSMDVLFTNYTNSSKKNYLVIVTASKDLQIHVFKWVSEECKFQQIRSLLGHEHIVSAVKIWQKNNDVHIASCSRDQTVKIWDFHNGWSLKTFQPHSQWVRSIDVLGDYIISGSHDTTLRLTHWPSGNGLSVGTGHEFPIEKVKFIHFIEDSPEIRFRTPSTDRYKNWGMQYCVSASRDRTIKIWEIPLPTLMAHRAPIPNPTDSNFRCVLTLKGHLSWVRDISIRGQYLFSCADDKSVRCWDLNTGQCLHVWEKLHTGFVNCLDLDVDFDSNVTPRQMMVTGGLDCKSNVFMR
In turn, B1 yielded a K1/2: Lis1 concentration for half-maximal velocity reduction (experiment with the AAA4 mutants) in experiment [1] of 15.7 nM. The K1/2: Lis1 concentration for half-maximal reduction of single-molecule GST-dynein (331 kDa) velocity in experiment [2] was determined as 15.3 nM.

(Values after PMC3438448.)
